Test results published in patent US10800847.
Blank lines part the entries; values can stand above or below the substance they belong to.

Assays:
[1] = biological target: HLA-B*0702 (B7) (human); experiment: Luminex regular beads (#7), IVIg diluted 1:8
[2] = biological target: HLA-B*0801 (B8) (human); experiment: Luminex regular beads (#7), IVIg diluted 1:8
[3] = biological target: HLA-B*1301 (B13) (human); experiment: Luminex regular beads (#7), IVIg diluted 1:8
[4] = biological target: HLA-B*1302 (B13) (human); experiment: Luminex regular beads (#7), IVIg diluted 1:8
[5] = biological target: HLA-B*1401 (B64) (human); experiment: Luminex regular beads (#7), IVIg diluted 1:8
[6] = biological target: HLA-B*1402 (B65) (human); experiment: Luminex regular beads (#7), IVIg diluted 1:8
[7] = biological target: HLA-B*1502 (B75) (human); experiment: Luminex regular beads (#7), IVIg diluted 1:8
[8] = biological target: HLA-B*1503 (B72) (human); experiment: Luminex regular beads (#7), IVIg diluted 1:8
[9] = biological target: HLA-B*1510 (B71) (human); experiment: Luminex regular beads (#7), IVIg diluted 1:8
[10] = biological target: HLA-B*1511 (B75) (human); experiment: Luminex regular beads (#7), IVIg diluted 1:8
[11] = biological target: HLA-B*1513 (B77) (human); experiment: Luminex regular beads (#7), IVIg diluted 1:8
[12] = biological target: HLA-B*1516 (B63) (human); experiment: Luminex regular beads (#7), IVIg diluted 1:8
[13] = biological target: HLA-B*1801 (B18) (human); experiment: Luminex regular beads (#7), IVIg diluted 1:8
[14] = biological target: Serum albumin on negative control beads (HSA/BSA) (human or bovine); experiment: Luminex regular beads (#7), IVIg diluted 1:8
[15] = biological target: HLA-A*2902 (A29) single antigen on beads (human); experiment: Luminex single-antigen regular beads (#7), IVIg 1:8
[16] = biological target: HLA-A*3001 (A30) single antigen on beads (human); experiment: as above
[17] = biological target: HLA-A*3002 (A30) single antigen on beads (human); experiment: as above
[18] = biological target: HLA-A*3101 (A31) single antigen on beads (human); experiment: as above
[19] = biological target: HLA-A*3201 (A32) single antigen on beads (human); experiment: as above
[20] = biological target: HLA-A*3301 (A33) single antigen on beads (human); experiment: as above
[21] = biological target: HLA-A*3303 (A33) single antigen on beads (human); experiment: as above
[22] = biological target: HLA-A*3401 (A34) single antigen on beads (human); experiment: as above
[23] = biological target: HLA-A*3402 (A34) single antigen on beads (human); experiment: as above
[24] = biological target: HLA-A*3601 (A36) single antigen on beads (human); experiment: as above
[25] = biological target: HLA-A*6601 (A66) single antigen on beads (human); experiment: as above
[26] = biological target: HLA-A*6602 (A66) single antigen on beads (human); experiment: as above
[27] = biological target: HLA-A*6801 (A68) single antigen on beads (human); experiment: as above
[28] = biological target: HLA-B*0702 (B7) (human); experiment: iBead MFI against regular-bead MFI, IVIg diluted 1:8
[29] = biological target: HLA-B*0801 (B8) (human); experiment: as above
[30] = biological target: HLA-B*1301 (B13) (human); experiment: as above
[31] = biological target: HLA-B*1302 (B13) (human); experiment: as above
[32] = biological target: HLA-B*1401 (B64) (human); experiment: as above
[33] = biological target: HLA-B*1402 (B65) (human); experiment: as above
[34] = biological target: HLA-B*1501 (B62) (human); experiment: as above
[35] = biological target: HLA-B*1502 (B75) (human); experiment: as above
[36] = biological target: HLA-B*1503 (B72) (human); experiment: as above
[37] = biological target: HLA-B*1510 (B71) (human); experiment: as above
[38] = biological target: HLA-B*1511 (B75) (human); experiment: as above
[39] = biological target: HLA-B*1512 (B76) (human); experiment: as above
[40] = biological target: HLA-B*1801 (B18) (human); experiment: as above
[41] = biological target: Serum albumin on negative control beads (HSA/BSA) (human or bovine); experiment: as above
[42] = biological target: HLA-A*6901 (A69) single antigen on Luminex beads (human); experiment: Luminex single antigen bead assay, iBeads vs regular beads, IVIg 1:8
[43] = biological target: HLA-A*8001 (A80) single antigen on Luminex beads (human); experiment: as above
[44] = biological target: HLA-B*1512 (B76) (human); experiment: Luminex regular beads (#7), IVIg diluted 1:8
[45] = biological target: HLA-B*1513 (B77) (human); experiment: iBead MFI against regular-bead MFI, IVIg diluted 1:8

MFI [1]: 837 MFI
MFI [2]: 1760 MFI
MFI [3]: 3520 MFI
MFI [4]: 2530 MFI
MFI [5]: 2280 MFI
MFI [6]: 1440 MFI
MFI [7]: 1540 MFI
MFI [8]: 2300 MFI
MFI [9]: 1620 MFI
MFI [10]: 3820 MFI
MFI [11]: 3210 MFI
MFI [12]: 3130 MFI
MFI [13]: 567 MFI
MFI [14]: 10300 MFI
MFI [15]: 820 MFI
MFI [16]: 1230 MFI
MFI [17]: 562 MFI
MFI [18]: 0 MFI
MFI [19]: 424 MFI
MFI [20]: 925 MFI
MFI [21]: 179 MFI
MFI [22]: 2150 MFI
MFI [23]: 0 MFI
MFI [24]: 704 MFI
MFI [25]: 875 MFI
MFI [26]: 838 MFI
MFI [27]: 0 MFI
Difference % (iBead vs regular bead) [28]: -100%
Difference % (iBead vs regular bead) [29]: -100%
Difference % (iBead vs regular bead) [30]: -71%
Difference % (iBead vs regular bead) [31]: -100%
Difference % (iBead vs regular bead) [32]: -82%
Difference % (iBead vs regular bead) [33]: -100%
Difference % (iBead vs regular bead) [34]: 253%
Difference % (iBead vs regular bead) [35]: -94%
Difference % (iBead vs regular bead) [36]: -100%
Difference % (iBead vs regular bead) [37]: -79%
Difference % (iBead vs regular bead) [38]: -51%
Difference % (iBead vs regular bead) [39]: 51%
Difference % (iBead vs regular bead) [40]: -100%
Difference % (iBead vs regular bead) [41]: -24%
Difference % (iBead MFI against regular bead MFI) [42]: 4%
Difference % (iBead MFI against regular bead MFI) [43]: -29%
Substance: IVIg Gamunex-C Lot NKLK1 (antibody)

MFI [1]: 1540 MFI
MFI [4]: 3100 MFI
MFI [6]: 2250 MFI
MFI [7]: 1520 MFI
MFI [8]: 2380 MFI
MFI [9]: 1430 MFI
MFI [10]: 4060 MFI
MFI [44]: 816 MFI
MFI [11]: 4270 MFI
MFI [12]: 3760 MFI
MFI [14]: 10800 MFI
MFI [15]: 1750 MFI
MFI [17]: 896 MFI
MFI [18]: 166 MFI
MFI [19]: 875 MFI
MFI [20]: 1690 MFI
MFI [21]: 476 MFI
MFI [22]: 3540 MFI
MFI [23]: 0 MFI
MFI [24]: 916 MFI
MFI [25]: 648 MFI
MFI [27]: 0 MFI
Difference % (iBead vs regular bead) [28]: 39%
Difference % (iBead vs regular bead) [29]: -31%
Difference % (iBead vs regular bead) [30]: -31%
Difference % (iBead vs regular bead) [31]: -45%
Difference % (iBead vs regular bead) [32]: -33%
Difference % (iBead vs regular bead) [35]: 32%
Difference % (iBead vs regular bead) [36]: -79%
Difference % (iBead vs regular bead) [37]: 1%
Difference % (iBead vs regular bead) [38]: -17%
Difference % (iBead vs regular bead) [39]: 244%
Difference % (iBead vs regular bead) [45]: -45%
Difference % (iBead vs regular bead) [40]: 112%
Difference % (iBead MFI against regular bead MFI) [42]: 122%
Difference % (iBead MFI against regular bead MFI) [43]: 24%
Substance: IVIg Gamunex-C Lot NKLG1 (antibody)
